Assay: soluble on expression in E. coli; label from the status in PepcDB or PDB records

Soluble on expression in E. coli, not soluble:
MGSDKIHHHHHHMKDLLTRRFVLNSKEVREGDVFVAVKGKRFDGHDFIDEALRNGAYAIIAERKTVNSDRIFLVESSVDTLAKLAREKLGNFSGTVVGVTGSSGKTTTKEILYNLLKNKRSVFKTPGNMNTEYGLPLSILNDYKGEEILVLEMAASRPGDIAHLCKIAPPDVAVLLNVGSAHLEFFGTRERIMETKMEIIKHSKENAIAVTLFDDPDLRKEVPRYRNTLFFGKEGGDSVLKDWWYYEGSTIAEFEAFDSLFTVKLSGYWNGGQLLNIAASLCVMRTLGETVDIFDLASLKTVPGRFNVREKKGVLIVDDTYNASPEAFQTSIEALLRFPGKKFAVVGAMKELGERSKEFHEELGERLNVLDGVYVFLSEPEAEWIKSKKIILKSDDPEKIAKDLATRVKKGDVVLFKASRAVRIERVLEM
MGSDKIHHHHHHMKEKIVLAPQKGPQEMFLATSADICIYGGAAGGGKTFGLLLEPLRYMNNPDYNATIFRRDYTQVTSPGGLWDSSRKIYRYVKGSRPLKTPKLHWTFKRGASVNFAHLGRDEDCDDWQGSQLTMIGFDELTHFSEYQFFYMLSRNRTDSGVKPYVRATCNPDADSWVAEFISWWINQETGYPIPERSGVIRWMVRLNEVVTWFDSREEAVQGAIENGVKPEQAETMPKSVTFIASTLHDNKILMKNDPGYLANLQAMTLVQRERLLHGNWKIKAAAGLMFKRVKVNMLEEIPPDVIKWARGWDLAATSEDEKGDPAYTAGVLIGKRRNGRYIVADVINRRLSSSDVREIIKQTCIADRAKYGRVATRLPQDPGQAGKDQAQSFMKLLAGFTVKCIQESGDKVTRAEPFSAQWLGLEGMDKGNVDVLIAPWNEEYFNECENFPQSKFKDMVDASSSAFTELESGATYSAPPKDSQLGKSSYWNK
MGSDKIHHHHHHMKEVKIGKDKISVALCTYNGEKFIREQLRSIVGQTILPWQIVVCDDQSTDRTMDIVREFADDYPSIRWMIIRNEVRLGVRRNFEKAIALAEGDYIAPSDQDDIWERNKLEILLHIMREKKVSLVHSNIRYVDVKGREMTERLDFPCSVPLATYLYGLNNVMGCTCLFCASLKDILFPFPIHYYYHDQWLAIMAYHNGGIYLCDHKLVRYRQHADNVVSAICGGGKREGEELGLSYFVGKAEDIYLLLHRRKQIKYSQKDWWRLAWLYVSNRLGLAWLKFKLL
MGSDKIHHHHHHMKEYRIRPREANLSFLEDLDEEQRRAVVESEGRCIVIAGPGSGKTRVITYKIAYLLANGVDPSRILLVTFTRAAAREMVERAKAVTGRELSEMLAGTFHHVCNHFLRKYAPYVGLERNYSILDREDAESLMRHARSKYLERKSKEERKNFPQPSVLMAIYSYMKNTLKSLRESIVVKNPKFLDLKEEISEIFDLYEQEKRSQNVVDYEDLLFYAYRLFEENKEIRDREAERFLWILVDEFQDTNYVQYKIVEHLSSKHGNILAVGDDAQSIYSFRGARYENVEDFIRVPGTKIFKIQTNYRSTESIVKFINAMLPRKSVPKELKPVKKDGMKPVVVKTWDRYEEARFVSQRILELIEEGFKPEEIAVLYRSHSHSLELQMELVRSRIDFRVLSGPRFTESAHVKDVLSFLRIVQNPRDKSAWLRAAKLFYGIGDRTASKIADLASAYVEEGLDPFQELKKVSFSGEYSRFIDILDQIRKLDSPGEMIERVLSSFYSEYLEARYPDFREREMDLERLVEIASRYTSLESFLTDLAVTENVEIEREISQKEGKVTLTTVHQAKGLEWRVVFVISVNPGDFPNYFAISEGNLDEEERIFYVAITRAKEQLYISYQVTGTSYPYRGNRFIMRSGENFIDRIPLELVEFWEVK
MGSDKIHHHHHHMKFEVASNVLLQHLQLIARVIASRSTLPILESVLFELEGDQLRLTAADMANRMSTELTVNNVGGENGSFAVPERILLEPLKELPDQPISFEINMETKAAEIAYSNGHYSFVVQDVSTYPVAASLSPEAIVSIVPAEALLSGLSATLFATSQDERRPIMTGVYLDFFEDKLVFVGSDGQILVKQEDANVQSRRRSAFCLPRKACLLLRNVLPRLEGDVTLTYDSNYLHIELGNYTLRARLLEGRYPNYNSVIPTSNPFSVKVDRAQLLSGAKRVSIFSNPATSMLRMEFTPAGIRLSANDIDFSVAAEEHVPAECPADINMRIGFKSDVFQTILQGMPSEEVIMTLADQTRAGLILPAENAPGISLCNLLLPMKLIGE
MGSDKIHHHHHHMKFPLLLALLVGGASALHLSSETSDSKSPLMDENLPRDAEISGPEGEECPPGEELMPLEGEKEEGSGSEGVPGDEGAVSGQDVTDVDLQCPKEEDTTSLMGDSGCKTCRYLLVRRAECFDKAQSVCRRCYRGTLASIHSFSVNFGIQSAVRGINQGQVWIGGRIKGWGRCKRFRWVDGSSWNFAYWAAGQPCPGGGRCVTLCTQGGHWRLSHCVKRRPFICSY
MGSDKIHHHHHHMKFSINRQKTIEIIGEYSNILKDNPVKPSLAGLFIQAKNNQVVFKGANTEIELIRYANCEIESEGQVLIKPALLLEYIKLLEGENINFEKKDGYLIVNNAEFSILDDNTYPELTEIIPIVIASENTVKFTMSLEKVKFLTNSSASTDTLFNSIKMIFKDNVLELVSTDSFRLIYMKKELNNMINKDVLVPGDSIAVLYKIFKDLDEEFSLAASDDKLIVTWKDAYFTCKLLSLSFPDFRPLINNTNHDKRFEFNRDELNLALKKVISVTKNSSDSKNVATFNFKGNQLLISGVSANAKINQKVNMIKTGEDLKLGMNCKYIKDFIDNVDKNIIIDATNSSSMLRFMEEGNENYIYLIMPVNIRV
MGSDKIHHHHHHMKGFDAKFRDFPDYIVGITKEIWEDRGIATLHEYYAEDIVVRSPASVVTGNQGVIAATMATLAEFPDRVLLGEDVIWSGTPEDGMLSSHRIISQATHAGDGVYGAATGKRLEYRILADCHAKNNAIDDEWLIRDQTAIVTQLGWTPRDYAADLIMREGGPEACVKPLTPDTDQPGPYKGRGNDNPWGERLADVLTRIMGADMAAIPEVYDRACHLEYPGHVTAHGPAEADRFWMSLRAAFPNAAFTIDHQIGREDDHMPPRAAIRWSLHGTHEGWGGFGQPTGAEVYIVGITHAEFGQVGTAEPKLRREYTLFDETSVWKQILLHEAAK
MGSDKIHHHHHHMKGRMPIIEALCAHVERNATSWHVPGHKNGTLFEGLPSFFEWDKTELRGLDDFHYPEEAIYEAKLLLRQVYEARDSHFLINGSTVGNWAMLAAVSQRGDRIYVQRNSHKSVFNALEWLGLSPILLGPEIDPSTGISGNVSRETLEEALTTFPGGVAVFLTSPTYYGETARIEELLPFTTASGIPLLIDEAHGAHFGEAFGVRSAFELGATAVVQSAHKTLPALTMGAWIHERFTDDERRRLTRALQAFQTSSPSYLLMASLDFAREYREKWTVSNMKSVRTSHEHLHQQINQLTDITAFTFDDWSRMILSCEEYSGSQLIEALADQGLDAEFALGPHVVCILPLRSIEPFEQDTWINQIQLAIETLKAEGIPDKRYMEQPFMGKIKVSSLACPLDQLEDAEAVEQTFEQSVGLVSLETIIPYPPGIPLILRGERITAEHITMIEHYINTSIHLQGGEFLHQGKLRVIQEGIRE
MGSDKIHHHHHHMKHKIVEVKNVLACLELMENLQGRSSITPGIGLIHGPSGFGKTTTLCWLINQLGAMNAIYVRCYATDTPSSFLARIMEELGSEMLYPMRKSVDFIVDRMNERQLPLFIDEADHIVGQSKIMETIRDLYDATEQPVVLVGMEEIARRISHRKQLFNRVSEWVEFQPADLSDVHSFAAELLDDRITVADDLLEHIRKRSGGEVRRILTALEKIERSAIANDMDIVTLDNWGDQPLFLEFRR
MGSDKIHHHHHHMKHTQISRREFLKNIGMTGAGVLLAASPWLSAFSEAVNTSNEKCRLGVIGPGSRGRFLMSFLVQNPKVDIVALCDIYQPSIDEALKLAPKAKVYGDYRELLENNNIDAILVATPLSSHCKIVMDAFDAGKHVFCEKTIGFTMEECFRMYNKHRSTGKIFFTGQQRLFDPRYIKAMEMIHAGTFGEINAIRTFWYRNGDWRRPVPSANLERQINWRLYKEYSKGLMTELACHQLQIGSWALNKLPEKVMGHGAITYWKDGREVYDNVSCLYVFDDGVKMTFDSVISNQFYGLEEQIMGNLGTVEPEKGKYYFESIPPAPGFLQMINDWENKLFDTLPFAGTSWAPETANENKGELILGERPKSDGTSLLLEAFVEAVITRKQPARIAEEGYYASMLCLLGHQALQEEKTLYFPDEYKINYLNHQSKTSEAV
MGSDKIHHHHHHMKHYQTIIIGAGAAGIGFGSAMQRLGLTNFLIIEKGHIGESFLRWPRTTQFITPSFTTNGFGFPDLNAVIPDTSPAFSFEKEHLSGVEYARYLQLVAAHYNLPIQNETSVLSIDKRDSLFVIKTSKGDFSADYLIMATGEFQNPNTIDIKGADLGMHYGQVDNFHIKSDNPFIIIGGNESACDALTHLVYLGNQVELYTDTFGRKESNPDPSISLSPLTKERLKHIQDHKKEYYSISEGKKAIEIKQIGKQYQVTFDDGSTAESFHKPILSTGFLNTCHLIDGIALFEYDKNQLPIVTEDDESTIVNNCFLIGPSLRQRDTIFCYIYKFRQRFVPVINHIAQREGIILDEDTLEFFKENQMYLDNLACCDVNCDC
MGSDKIHHHHHHMKIAHVAPLYESVPPRLYGGTERIISYLTEALVDLGHDVTLFASGDTKTSAKLVPCRERALRLDPRPLKSEIAAHLSMLDEVRKRADDFDVIHFHLSHFLHFPFFRDMPQRTVTTPHGRLDYADLAQAYDRFPRFPMVSISRSQRARFASANWLATIHHGLPVDLYEPDFEAGSDGGYLAFLGRMSRDKRPDRAIEIARRTGLKLKLAAKIGDGDRAYFEEVVQPMIDGDRVEYVGEIGEDQKSRFLGNAAALLFPIDWPEPFGLAVIEAMACGTPVMAWSCGAMPEIVDYGVTGFVVETIEDAVATMPALLQLDRRRIRAVFERRFSADRMARDYVEAYSRLRNGHEQSRAS
MGSDKIHHHHHHMKIGVNSYIVREMTGRGFSLDELNVDFVELGFDDAEIIKNDGEINMKILKDLSGLGIEFTIHAPTSDGKNFPIDFGEYFPIDLGTYRKTPIIKRMKKIIKVAEYLDASVIVVHGGDIKESYTKAYVNTLRNLRELKPITEDSGVKIVVENLFEGRIGALPHEVLSFAKEGFEVCFDIGHAFLTAIRTGLRVDEFEMLFPYTTHLHLHDNNGFRDEHKPIGEGIIGFSYVERVLELTNPERAVLEIRRYNKENSVLLNVEVLQEISRDFSQMKRLTEVVEP
MGSDKIHHHHHHMKIGVVGPGAIGLLYTFYLQKSNQDVTLFTRTAKQADELNITGVTCIREGKRETVFPPVLPIESMLDQQLDYIFIAVKQYHITDILPFVRGKSSVVFLQNGMSHLHAMQKIENENIAVGIVEHGAKKEERHTVYHTGIGVTKFGIVRGRSIHFEKIFNCFPFPHFPIRIEDDWKGVMHKKLVVNVCINPLTALLQVKNGELITNPFFNQMMEQVFQEVVFLVKEEKEMVWEMVRHVCERTSHNTSSMLADVRANRQTEIGAIVGYVLEEAKKQQRSVPTLQFLFDAIKGLEVKV
MGSDKIHHHHHHMKIHQLRALVAVTTAGSIKAAARTMHVTQPAISKAIQELENEFGVPLLERKPWGVVPTPEGDALLGRAQAVVRELERANEDMAHMKGLRDGRLVIGFTPIVAVTGFAEAYAAFRRHWPNVECELRELTFNLLTEQLRNRTLDLAFVAVTGPLSESVDIKAIRTFDTAFVTRENGRFAGATSLDALRDAEWIHADASDSFPTYIRDLHAHAGLPPPRCITRCTSYALFYSLLMTNDAIFSWTRLSLAETVFGQKLTPLPLPMSPPPLQLYRLTPPGLQLTRPASDFLAHVETAFASNQLTGDVQR

From the DeepSol protein solubility set
